Data taken from US20170129921A1.

Biological target: Human C5a receptor 2 (human) (UniProt Q9P296)
Test: 125I-C5a displacement, SPA on Flp-In CHO-C5a2 membranes

Chain of Human C5a receptor 2 (human) (Q9P296 whole entry): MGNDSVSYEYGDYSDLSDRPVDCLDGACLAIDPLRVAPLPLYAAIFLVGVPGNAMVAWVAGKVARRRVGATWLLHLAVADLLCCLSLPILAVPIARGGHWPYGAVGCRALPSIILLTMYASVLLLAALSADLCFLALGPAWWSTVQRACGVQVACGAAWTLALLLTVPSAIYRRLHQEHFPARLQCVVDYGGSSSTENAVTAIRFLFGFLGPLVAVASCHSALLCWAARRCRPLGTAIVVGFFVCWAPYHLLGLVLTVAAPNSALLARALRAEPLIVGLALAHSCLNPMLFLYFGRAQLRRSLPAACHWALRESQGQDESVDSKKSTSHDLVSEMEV
Chain of Human isolated C3a, P01024 672-748 (ligand; other documents disagree on this pair) (P01024 672-748): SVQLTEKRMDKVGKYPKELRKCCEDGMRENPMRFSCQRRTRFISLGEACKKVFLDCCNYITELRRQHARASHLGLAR
Chain of Human isolated C3a-des Arg, P01024 672-747 (ligand; other documents disagree on this pair) (P01024 672-747 limits assumed): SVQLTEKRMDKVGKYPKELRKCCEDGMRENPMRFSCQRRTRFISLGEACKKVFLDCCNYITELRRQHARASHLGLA

Substance | Ki
Human isolated C3a, P01024 672-748 (ligand; other documents disagree on this pair) | > 1 µM
Human isolated C3a-des Arg, P01024 672-747 (ligand; other documents disagree on this pair) | > 1 µM
